# Laboratory results reported in patent US20250320312A1 (OXITOPE PHARMA B V, published 2025).
# Substitutions are numbered along the chain they refer to.
# T1: Peptide 8: Biotin-AEAAAKEAAAKEAAAKEAAAKAAA-Tyr-acid (N-terminal biotin; C-terminal acid)
# T1 construct: control peptide without PC
# T1 peptide: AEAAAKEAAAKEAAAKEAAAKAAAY
# T2: Peptide 4: Biotin-AGGGGSGGGGSGGGGSAAA-Tyr-acid (N-terminal biotin; C-terminal acid)
# T2 construct: Control peptide without PC
# T2 peptide: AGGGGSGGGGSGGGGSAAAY
# T3: Peptide 8: Biotin-AEAAAKEAAAKEAAAKEAAAKAAA-Tyr-acid (N-terminal biotin; C-terminal acid)
# T3 construct: Control peptide without PC
# T3 peptide: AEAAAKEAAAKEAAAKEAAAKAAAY
# T4: Peptide 4: Biotin-AGGGGSGGGGSGGGGSAAA-Tyr-acid (N-terminal biotin; C-terminal acid)
# T4 construct: control peptide without PC
# T4 peptide: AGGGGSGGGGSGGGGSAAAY
# B1: PcOxP_DB03_C06 (scFv, V domains shown)
# VH: EVQLLESGGGLVQPGGSLRLSCAASGATFSDFYMEWVRQAPGKGLEWVAASRNGANDYTTEYADSVKGRFTISRDNSKNTLYLQMNSLRAEDTAVYYCARDYYGNSYWYFDVWGQGTLVTVSS
# VL: DIQMTQSPSSLSASVGDRVTITCTASESLYSSKHKVHYLAWYQQKPGKAPKLLIYGASNRQSGVPSRFSGSGSGTDFTLTISSLQPEDFATYYCAQFYVYPLTFGGGTKVEIK
# notes: scFv in periplasmic extract
# B2: PcOxP_DB01_H08 (scFv, V domains shown)
# VH: B1 VH with A27F, F29H, G54K, N105S
# VL: DIQMTQSPSSLSASVGDRVTITCRASESISSSKHKHYLAWYQQKPGKAPKLLIYGASNRYIGVPSRFSGSGSGTDFTLTISSLQPEDFATYYCAQFYVYPLTFGGGTKVEIK
# notes: scFv in periplasmic extract
# B3: PcOxP_DB03_D07 (scFv, V domains shown)
# VH: B1 VH with A27F, F32V, G54K, N105S
# VL: B1 VL with Q61Y, V99K
# notes: scFv in periplasmic extract
# B4: PcOxP_DB03_D01 (scFv, V domains shown)
# VH: B1 VH with A27F, F32E, G54K, N105S
# VL: B1 VL with Q61Y, S62I, V99Y
# notes: scFv in periplasmic extract
# B5: PcOxP_DB03_G06 (scFv, V domains shown)
# VH: B1 VH with A27F, G54K, N105S
# VL: B1 VL with Q61Y, S62I, V99E
# notes: scFv in periplasmic extract
# B6: PcOxP_DB03_C11 (scFv, V domains shown)
# VH: B1 VH with A27F, T28D, G54K, E61D, Y103F, N105S
# VL: B1 VL with Q61Y, S62Q, V99F
# notes: scFv in periplasmic extract
# B7: PcOxP_DB03_E07 (scFv, V domains shown)
# VH: B1 VH with A27F, F32N, G54K, T60N, N105S
# VL: B1 VL with Q61Y, S62I, V99S
# notes: scFv in periplasmic extract
# B8: PcOxP_DB03_D08 (scFv, V domains shown)
# VH: B1 VH with A27F, T28W, G54K, N105S, S106A
# VL: B1 VL with Q61Y, S62I, V99S
# notes: scFv in periplasmic extract
# B9: PcOxP_DB03_F01 (scFv, V domains shown)
# VH: B1 VH with A27F, S30N, G54K, N105S
# VL: B1 VL with T24E, Q61L, S62I, V99E
# notes: scFv in periplasmic extract
# B10: PcOxP_DB03_E08 (scFv, V domains shown)
# VH: B1 VH with A27F, D31S, G54A, N105S, V112L
# VL: B1 VL with Q61Y, S62I, V99F
# notes: scFv in periplasmic extract
# B11: PcOxP_DB03_G03 (scFv, V domains shown)
# VH: B1 VH with A27F, F29S, G54K, N105S
# VL: B1 VL with E27Q, L29I, Y30S, R60H, Q61Y, S62I, V99S
# notes: scFv in periplasmic extract
# B12: PcOxP_DB03_G02 (scFv, V domains shown)
# VH: B1 VH with A27F, F32G, M34I, G54K, N105S
# VL: B1 VL with S28E, Q61Y, S62I, V99S
# notes: scFv in periplasmic extract
# B13: PcOxP_DB03_E01 (scFv, V domains shown)
# VH: B1 VH with A27F, F32Y, G54K, T60V, N105S
# VL: B1 VL with A57T, Q61Y, S62I, V99E
# notes: scFv in periplasmic extract
# B14: PcOxP_DB03_E09 (scFv, V domains shown)
# VH: B1 VH with A27F, F29A, G54K, Y58Q, N105S, V112S
# VL: B1 VL with V99S
# notes: scFv in periplasmic extract
# B15: PcOxP_DB03_C12 (scFv, V domains shown)
# VH: B1 VH with A27F, F32Y, G54K, N105S
# VL: B1 VL with Q61Y, S62G, V99S
# notes: scFv in periplasmic extract
# B16: PcOxP_DB03_F10 (scFv, V domains shown)
# VH: B1 VH with A27F, F32H, G54S, A55G, D57S, N105S
# VL: B1 VL with K35S, Q61F, S62I, V99S
# notes: scFv in periplasmic extract
# B17: PcOxP_DB03_G07 (scFv, V domains shown)
# VH: B1 VH with A27F, F32H, G54K, N105Q
# VL: B1 VL with Q61Y, S62I, V99S
# notes: scFv in periplasmic extract
# B18: PcOxP_DB03_E02 (scFv, V domains shown)
# VH: B1 VH with A27W, G54K, N105S
# VL: B1 VL with S32Q, Q61Y, S62I, V99Y
# notes: scFv in periplasmic extract
# B19: PcOxP_DB03_D11 (scFv, V domains shown)
# VH: B1 VH with A27F, G54K, N105H
# VL: B1 VL with N59S, Q61Y, S62I, V99E
# notes: scFv in periplasmic extract
# B20: PcOxP_DB04_G05 (scFv, V domains shown)
# VH: B1 VH with A27F, G54K, Y102F, N105S
# VL: DIVMTQSPDSLAVSLGERATINCTASESLYSSKHKVHYLAWYQQKPGQPPKLLIYGASNRYIGVPDRFSGSGSGTDFTLTISSLQAEDVAVYYCAQFYSYPLTFGGGTKVEIK
# notes: scFv in periplasmic extract
# B21: PcOxP_DB02_E12 (scFv, V domains shown)
# VH: B1 VH with A27F, T28G, G54K, N105S
# VL: B20 VL with Q96E
# notes: scFv in periplasmic extract
# B22: PcOxP_DB02_F04 (scFv, V domains shown)
# VH: B1 VH with A27F, F29G, G54S, A55G, D57S, E61A, Y103F, N105S
# VL: B20 VL
# notes: scFv in periplasmic extract
# Biological target: T1, Peptide 8: …
# Assay: scFv ELISA
# How it was run: (§1)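 Bound scFv was read as OD450 after HRP–anti-V5 detection, TMB development and HCl stop. PPE with BSA was incubated 1 h at RT on BSA-blocked wells coated overnight at 4° C. with peptide, or on streptavidin wells loaded 1 h with biotinylated PC-peptides at 1 μg/mL.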
row,Binder,OD450
1,B1,0.05 OD450
2,B2,0.06 OD450
3,B3,0.05 OD450
4,B4,0.05 OD450
5,B5,0.06 OD450
6,B6,0.04 OD450
7,B7,0.05 OD450
8,B8,0.05 OD450
9,B9,0.05 OD450
10,B10,0.05 OD450
11,B11,0.08 OD450
12,B12,0.05 OD450
13,B13,0.06 OD450
14,B14,0.05 OD450
15,B15,0.05 OD450
16,B16,0.07 OD450
17,B17,0.05 OD450
18,B18,0.05 OD450
19,B19,0.05 OD450

# Biological target: T2, Peptide 4: …
# Assay: scFv ELISA
# How it was run: as §1
row,Binder,OD450
1,B20,0.05 OD450
2,B21,0.05 OD450
3,B22,0.04 OD450

# Biological target: T3, Peptide 8: …
# Assay: scFv ELISA
# How it was run: as §1
row,Binder,OD450
1,B20,0.05 OD450
2,B21,0.06 OD450
3,B22,0.05 OD450

# Biological target: T4, Peptide 4: …
# Assay: scFv ELISA
# How it was run: as §1
row,Binder,OD450
1,B1,0.05 OD450
2,B2,0.06 OD450
3,B3,0.06 OD450
4,B4,0.05 OD450
5,B5,0.06 OD450
6,B6,0.05 OD450
7,B7,0.05 OD450
8,B8,0.05 OD450
9,B9,0.05 OD450
10,B10,0.05 OD450
11,B11,0.05 OD450
12,B12,0.04 OD450
13,B13,0.06 OD450
14,B14,0.05 OD450
15,B15,0.05 OD450
16,B16,0.05 OD450
17,B17,0.06 OD450
18,B18,0.06 OD450
19,B19,0.06 OD450

# Biological target: Peptide 5: Biotin-…-[Tyr(PC)]-acid
# Assay: scFv ELISA
row,Binder,OD450
1,B1,0.61 OD450
2,B20,1.67 OD450
3,B2,0.85 OD450
4,B3,0.95 OD450
5,B4,1.6 OD450
6,B5,2.01 OD450
7,B21,0.58 OD450
8,B6,0.75 OD450
9,B7,0.86 OD450
10,B8,0.57 OD450
11,B9,0.8 OD450
12,B10,0.92 OD450
13,B11,1.8 OD450
14,B12,1.59 OD450
15,B13,2.11 OD450
16,B14,0.72 OD450
17,B22,0.74 OD450
18,B15,1.77 OD450
19,B16,0.85 OD450
20,B17,1.67 OD450
21,B18,1.49 OD450
22,B19,0.66 OD450

# Biological target: Peptide 1: Biotin-…-[Tyr(PC)]-acid
# Assay: scFv ELISA
row,Binder,OD450
1,B1,0.64 OD450
2,B20,1.2 OD450
3,B2,0.56 OD450
4,B3,0.75 OD450
5,B4,2.51 OD450
6,B5,2.48 OD450
7,B21,0.26 OD450
8,B6,1.14 OD450
9,B7,0.78 OD450
10,B8,0.54 OD450
11,B9,0.58 OD450
12,B10,0.87 OD450
13,B11,1.57 OD450
14,B12,1.33 OD450
15,B13,2.5 OD450
16,B14,0.39 OD450
17,B22,0.47 OD450
18,B15,2.74 OD450
19,B16,0.65 OD450
20,B17,2.18 OD450
21,B18,2 OD450
22,B19,0.5 OD450

# Biological target: BSA (UniProt P02769)
# Assay: scFv ELISA
# BSA, sequence (P02769 25-607 limits assumed): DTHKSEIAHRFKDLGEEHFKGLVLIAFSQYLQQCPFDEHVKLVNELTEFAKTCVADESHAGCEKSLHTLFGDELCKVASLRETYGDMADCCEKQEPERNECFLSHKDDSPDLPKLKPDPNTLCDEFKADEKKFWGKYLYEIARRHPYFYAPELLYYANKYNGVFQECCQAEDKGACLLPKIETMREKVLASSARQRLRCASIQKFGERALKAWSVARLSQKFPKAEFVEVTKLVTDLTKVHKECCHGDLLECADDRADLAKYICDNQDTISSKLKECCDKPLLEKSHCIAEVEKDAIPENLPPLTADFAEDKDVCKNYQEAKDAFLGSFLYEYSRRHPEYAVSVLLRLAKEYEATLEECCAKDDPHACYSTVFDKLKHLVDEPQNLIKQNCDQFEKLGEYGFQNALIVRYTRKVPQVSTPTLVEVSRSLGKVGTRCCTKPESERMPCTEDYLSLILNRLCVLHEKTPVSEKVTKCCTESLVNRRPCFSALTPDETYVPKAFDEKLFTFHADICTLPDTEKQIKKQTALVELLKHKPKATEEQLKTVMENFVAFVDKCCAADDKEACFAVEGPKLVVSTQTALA
row,Binder,OD450
1,B1,0.07 OD450
2,B20,0.07 OD450
3,B2,0.09 OD450
4,B3,0.12 OD450
5,B4,0.08 OD450
6,B5,0.1 OD450
7,B21,0.06 OD450
8,B6,0.07 OD450
9,B7,0.08 OD450
10,B8,0.1 OD450
11,B9,0.09 OD450
12,B10,0.09 OD450
13,B11,0.08 OD450
14,B12,0.07 OD450
15,B13,0.09 OD450
16,B14,0.08 OD450
17,B22,0.09 OD450
18,B15,0.09 OD450
19,B16,0.09 OD450
20,B17,0.1 OD450
21,B18,0.11 OD450
22,B19,0.08 OD450
